In patent publication US11357833B2, “Use of lysin to restore/augment antibacterial activity in the presence of pulmonary surfactant of antibiotics inhibited thereby” (priority 2015, dated 2022):
Values after ≈ are worked out from the molar mass of the structure shown.

B1: CF-301: Bacteriophage lysin polypeptide, SEQ ID NO: 1 (GenBank accession ZP 03625529), antimicrobial agent against Staphylococcus aureus (protein, listed as Streptococcus suis)
chain: MTTVNEALNNVRAQVGSGVSVGNGECYALASWYERMISPDATVGLGAGVGWVSGAIGDTISAKNIGSSYNWQANGWTVSTSGPFKAGQIVTLGATPGNPYGHVVIVEAVDGDRLTILEQNYGGKRYPVRNYYSAASYRQQVVHYITPPGTVAQSAPNLAGSRSYRETGTMTVTVDALNVRRAPNTSGEIVAVYKRGESFDYDTVIIDVNGYVWVSYIGGSGKRNYVATGATKDGKRFGNAWGTFK

Legend:
[1] = test system: S. aureus (MRSA strain ATCC BAA-42); assay: Murine model of S. aureus pneumonia; settings: 14 days; CF-301 i.v., DAP s.c.; once daily
MRSA MW2 [2] = assay: Combination MIC assay in 7.5% surfactant; design: MIC alone / MIC combo: unit not given beside the values; settings: for MIC combo: CF-301 and daptomycin in combination; for MIC alone: single agent
MRSA BAA-1720 = assay: Combination MIC assay in 7.5% surfactant; design: MIC alone / MIC combo: unit not given beside the values; settings: for MIC combo: CF-301 and daptomycin in combination; for MIC alone: single agent
MRSA NRS-192 = assay: Combination MIC assay in 7.5% surfactant; design: MIC alone / MIC combo: unit not given beside the values; settings: for MIC combo: CF-301 and daptomycin in combination; for MIC alone: single agent
MRSA NRS-265 = assay: Combination MIC assay in 7.5% surfactant; design: MIC alone / MIC combo: unit not given beside the values; settings: for MIC combo: CF-301 and daptomycin in combination; for MIC alone: single agent
MRSA NRS-255 = assay: Combination MIC assay in 7.5% surfactant; design: MIC alone / MIC combo: unit not given beside the values; settings: for MIC combo: CF-301 and daptomycin in combination; for MIC alone: single agent
MSSA ATCC 29213 = assay: Combination MIC assay in 7.5% surfactant; design: MIC alone / MIC combo: unit not given beside the values; settings: for MIC combo: CF-301 and daptomycin in combination; for MIC alone: single agent
MSSA NRS-131 = assay: Combination MIC assay in 7.5% surfactant; design: MIC alone / MIC combo: unit not given beside the values; settings: for MIC combo: CF-301 and daptomycin in combination; for MIC alone: single agent
MSSA ATCC 25923 = assay: Combination MIC assay in 7.5% surfactant; design: MIC alone / MIC combo: unit not given beside the values; settings: for MIC combo: CF-301 and daptomycin in combination; for MIC alone: single agent
MSSA ATCC 49521 = assay: Combination MIC assay in 7.5% surfactant; design: MIC alone / MIC combo: unit not given beside the values; settings: for MIC combo: CF-301 and daptomycin in combination; for MIC alone: single agent
MSSA Newman = assay: Combination MIC assay in 7.5% surfactant; design: MIC alone / MIC combo: unit not given beside the values; settings: for MIC combo: CF-301 and daptomycin in combination; for MIC alone: single agent
[3] = test system: MRSA, MSSA, and VISA strains of S. aureus; assay: MIC by broth microdilution in increasing surfactant, strains pooled; settings: for Antimicrobial activity in the presence of pulmonary (bovine-derived) surfactant: MRSA, MSSA and VISA strains
[4] = test system: methicillin resistant strain (MRSA) MW2; assay: MIC by broth microdilution, with and without bovine-derived surfactant
[5] = test system: methicillin-susceptible (MSSA) strain ATCC 29213; assay: as above
[6] = test system: 5 strains of MRSA and 5 strains of MSSA; assay: Combination MIC assay in 7.5% surfactant, strains pooled; settings: CF-301 and DAP combined, across strains
MRSA MW2 [7] = assay: BODIPY-labeled daptomycin binding assay, fluorescence microscopy; settings: CF-301 8 μg/ml; BODIPY-DAP 4 μg/ml; 7.5% surfactant
VISA ATCC 700699 = assay: as above; settings: CF-301 4 μg/ml; DAP^BD 4 μg/ml; 30 min; 7.5% surfactant

Molecule	Fold reduction (MIC alone vs combo) (MRSA MW2 [2]) [fold]	MIC combo (MRSA MW2 [2])	MIC alone (MRSA MW2 [2])	Fold reduction (MIC alone vs combo) (MRSA BAA-1720) [fold]	MIC combo (MRSA BAA-1720)	MIC alone (MRSA BAA-1720)	Fold reduction (MIC alone vs combo) (MRSA NRS-192) [fold]	MIC combo (MRSA NRS-192)	MIC alone (MRSA NRS-192)	Fold reduction (MIC alone vs combo) (MRSA NRS-265) [fold]	MIC combo (MRSA NRS-265)	MIC alone (MRSA NRS-265)	Fold reduction (MIC alone vs combo) (MRSA NRS-255) [fold]	MIC combo (MRSA NRS-255)	MIC alone (MRSA NRS-255)	Fold reduction (MIC alone vs combo) (MSSA ATCC 29213) [fold]	MIC combo (MSSA ATCC 29213)	MIC alone (MSSA ATCC 29213)	Fold reduction (MIC alone vs combo) (MSSA NRS-131) [fold]	MIC combo (MSSA NRS-131)	other results
CCCCCCCCCC(=O)N[C@@H](Cc1c[nH]c2ccccc12)C(=O)N[C@H](CC(N)=O)C(=O)N[C@@H](CC(=O)O)C(=O)N[C@@H]1C(=O)NCC(=O)N[C@@H](CCCN)C(=O)N[C@@H](CC(=O)O)C(=O)N[C@H](C)C(=O)N[C@@H](CC(=O)O)C(=O)NCC(=O)N[C@H](CO)C(=O)N[C@@H]([C@H](C)CC(=O)O)C(=O)N[C@@H](CC(=O)c2ccccc2N)C(=O)O[C@@H]1C [DAP, daptomycin, reference compound]	1024	0.25	256	1024	0.25	256	512	0.5	256	1024	0.25	256	1024	0.5	512	512	0.5	256	1024	0.5	Survival pattern, comparison between treatment groups [1]: same survival pattern as those treated with saline; MIC alone (MSSA NRS-131): 512; Fold reduction (MIC alone vs combo) (MSSA ATCC 25923): 512 fold; MIC combo (MSSA ATCC 25923): 0.5; MIC alone (MSSA ATCC 25923): 256; Fold reduction (MIC alone vs combo) (MSSA ATCC 49521): 512 fold; MIC combo (MSSA ATCC 49521): 0.5; MIC alone (MSSA ATCC 49521): 256; Fold reduction (MIC alone vs combo) (MSSA Newman): 512 fold; MIC combo (MSSA Newman): 0.5; MIC alone (MSSA Newman): 256; Antimicrobial activity in the presence of pulmonary (bovine-derived) surfactant [3]: not active; MIC increase ([3]; strain not specified, surfactant concentrations 1.25-15%): 256 fold; MIC ([4]; Staphylococcus aureus, MRSA, 24 h, read-out: Starting MIC (without surfactant)): 1 µg/mL (≈ 0.617 µM); MIC ([5]; Staphylococcus aureus, ATCC29213|MSSA, 24 h, read-out: Starting MIC (without surfactant)): 1 µg/mL (≈ 0.617 µM)
B1	32	2	64	32	2	64	16	4	64	16	4	64	16	2	64	32	4	128	16	4	MIC alone (MSSA NRS-131): 64; Fold reduction (MIC alone vs combo) (MSSA ATCC 25923): 32 fold; MIC combo (MSSA ATCC 25923): 4; MIC alone (MSSA ATCC 25923): 128; Fold reduction (MIC alone vs combo) (MSSA ATCC 49521): 32 fold; MIC combo (MSSA ATCC 49521): 2; MIC alone (MSSA ATCC 49521): 64; Fold reduction (MIC alone vs combo) (MSSA Newman): 32 fold; MIC combo (MSSA Newman): 4; MIC alone (MSSA Newman): 128; Growth inhibitory concentration lower in combination than as single agent (MIC reduction) [6]: 16-32 fold; BODIPY-DAP (DAP^BD) binding to MRSA (MRSA MW2 [7]): promotes; DAP^BD binding to VISA (VISA ATCC 700699): promotes; Antimicrobial activity in the presence of pulmonary (bovine-derived) surfactant [3]: active; MIC increase ([4]; MRSA strain, surfactant concentrations 1.25-15%): up to 2 fold; Starting MIC (without surfactant) ([4]; MW2, no surfactant, 24 hours at 35° C.): 32 µg/mL; Starting MIC (without surfactant) ([5]; ATCC 29213, no surfactant, 24 hours at 35° C.): 16 µg/mL; MIC increase ([5]; MSSA strain, surfactant concentrations 1.25-15%): up to 2 fold
